We go through 8 molecules from patent publication US20140308239A1 (ELEVEN BIOTHERAPEUTICS, published 2014).

Substitutions are numbered along the chain they refer to.

Assay [1] deals with IL-1RI on HEK-Blue IL-1β responsive cells (UniProt P14778).
In assay [2] the target is T1, IL-1RI on HEK-Blue IL-1β responsive cells (UniProt P14778 18-569).
T1 sequence (looked up): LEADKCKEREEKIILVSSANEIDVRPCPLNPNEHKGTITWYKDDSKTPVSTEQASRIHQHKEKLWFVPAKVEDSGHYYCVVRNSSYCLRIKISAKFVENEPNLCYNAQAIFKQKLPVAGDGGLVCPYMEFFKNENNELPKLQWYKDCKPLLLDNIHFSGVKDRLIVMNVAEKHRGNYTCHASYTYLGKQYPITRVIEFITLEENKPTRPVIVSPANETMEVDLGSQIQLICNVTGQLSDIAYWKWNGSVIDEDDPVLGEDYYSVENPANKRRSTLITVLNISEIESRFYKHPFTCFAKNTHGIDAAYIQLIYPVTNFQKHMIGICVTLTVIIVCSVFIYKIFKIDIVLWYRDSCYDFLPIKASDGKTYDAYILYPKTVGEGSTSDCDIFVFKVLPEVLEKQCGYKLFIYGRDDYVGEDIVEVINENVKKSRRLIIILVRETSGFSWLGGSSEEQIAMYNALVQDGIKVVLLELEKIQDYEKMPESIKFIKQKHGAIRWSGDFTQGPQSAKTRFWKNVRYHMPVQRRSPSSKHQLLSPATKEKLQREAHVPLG
The assay is described as follows: cell-based or functional assay.

Assay [3] deals with T2, soluble recombinant human IL-1RI (corresponding to the extracellular domain of IL-1RI) (human, UniProt P14778 18-336).
T2 construct: extracellular domain
T2 sequence (looked up): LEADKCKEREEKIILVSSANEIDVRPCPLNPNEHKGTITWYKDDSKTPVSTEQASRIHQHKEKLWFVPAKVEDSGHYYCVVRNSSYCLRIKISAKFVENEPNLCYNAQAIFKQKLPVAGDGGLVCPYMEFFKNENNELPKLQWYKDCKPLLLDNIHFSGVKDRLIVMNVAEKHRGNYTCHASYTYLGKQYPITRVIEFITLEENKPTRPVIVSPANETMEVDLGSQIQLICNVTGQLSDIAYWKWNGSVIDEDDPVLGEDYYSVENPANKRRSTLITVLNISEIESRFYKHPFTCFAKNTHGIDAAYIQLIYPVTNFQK
The assay is described as follows: SPR (Reichert SR7000DC), soluble recombinant human IL-1RI, PBS with 0.005% Tween 20. The method, then: The binding properties of proteins for soluble recombinant human IL-1RI (corresponding to the extracellular domain of IL-1RI) were evaluated using surface plasmon resonance with a Reichert SR7000DC Dual Channel SPR system. Binding was evaluated in phosphate buffered saline with 0.005% Tween 20. […] Thus, the P01 protein bound to IL-1RI with a greater affinity than did IL-1β under similar conditions.

Assay [4] has as its target T1, IL-1RI on HEK-Blue IL-1β responsive …. The assay is described as follows: cell-based or functional assay. The source holds these as a separate data set.
For assay [5] the target is unchanged. Put plainly: cell-based or functional assay. This is another data set of the same source.

Consider GUS (enzyme), for which the OD650 (SEAP reporter of HEK-Blue IL-1β cells, agonism test, negative control; amount of protein not given) in assay [1] is 0.06 OD650.

B1: P04 (designed binder)
chain: APVRSLAFRIWDVNQKTFYLRNNQLVAGYLQGPNVNLEEKFSMSFVQGEESNDKIPVALGLKEKNLYLSCVLKDDKPTLQLESVDPKNYPKKKMEKRFVFNKIEINNKLEFESAACPGWFLCTAMEADQPVSLTNMPDEGVMVTKFTMQFVSS
notes: Expressed in E. coli; also called chimeric cytokine domain P04
B1: the “IC50 (read off the curve); HEK-Blue IL-1β SEAP reporter, IL-1β 0.1 ng/ml, lysate with untagged P04, concentration estimated” value in assay [2] is roughly 6 ng/mL. Further, the Kd (usually the equilibrium constant for the complex coming apart) in assay [3] came to 1.71 nM.

B2: P03 (designed binder)
chain: B1 chain with N101I, K102R, I103S, E104D, I105S, N106G, N107P, K108T, L109T, E110S
notes: Expressed in E. coli; also called chimeric cytokine domain P03
Take B2: the “IC50 (read off the curve); HEK-Blue IL-1β SEAP reporter, IL-1β 0.1 ng/ml, lysate with untagged P03, concentration estimated” value in assay [2] is roughly 2 ng/mL. Further, in assay [3], the Kd came to 0.29 nM; the koff – broadly, the first-order rate constant of dissociation – amounted to 0.0012 s⁻¹; the kon (commonly a measure of how fast the partners come together) was found to be 4.1e+06 M⁻¹ s⁻¹.

B3: P07 (designed binder)
chain: B1 chain with A7N, F8C, A115Q, C116F, G118N, V141Q, M142D, V143I, K145D
notes: Expressed in E. coli
Turning to B3, in assay [3], the Kd is 92.6 nM, the koff was 0.00146 s⁻¹ and the association rate constant (kon) worked out at 15800 M⁻¹ s⁻¹. Moreover, in assay [4], the “OD650 (SEAP reporter of HEK-Blue IL-1β cells, agonism test, protein alone; amount of protein not given)” value came to 0.222 OD650.

B4: P05 (designed binder)
chain: B1 chain with A7N, F8C, A115Q, C116F, G118N, T147Y
notes: Expressed in E. coli; also called EBI-005; chimeric cytokine domain P05
On to B4, for which the “IC50, antagonism of IL-1β activity in the HEK-Blue IL-1β SEAP reporter assay” value in assay [5] was less than 5 ng/mL. Besides, in assay [3], the Kd was found to be 0.012 nM, the koff turned out to be 4.15e-05 s⁻¹ and the on-rate constant (kon) came to 3.47e+06 M⁻¹ s⁻¹.

B5: P01 (designed binder)
chain: APVRSLAFRIWDVNQKTFYLRNNQLVAGYLQGPNVNLEEKIDVSFVQGEESNDKIPVALGIHGGKMCLSCVKSGDETRLQLEAVDPKNYPKKKMDKRFAFIRSDSGPTTSFESAACPGWFLCTAMEADQPVSLTNMPDEGVMVTKFYMQFVSS
notes: Expressed in E. coli; In the cell assay, supernatants or lysates containing P01 were used; also called chimeric cytokine domain P01
Turning to B5, the “IC50 (read off the curve); HEK-Blue IL-1β SEAP reporter, IL-1β 0.1 ng/ml, lysate with untagged P01, concentration estimated” value in assay [2] was roughly 1 ng/mL. Besides, in assay [3], the Kd came out at 0.47 nM, the koff turned out to be 2.32e-05 s⁻¹ and the kon worked out at 49300 M⁻¹ s⁻¹. Moreover, in assay [4], the “OD650 (SEAP reporter of HEK-Blue IL-1β cells, agonism test, protein alone; amount of protein not given)” value came to 0.061 OD650.

B6: P02 (designed binder)
chain: APVRSLAFRIWDVNQKTFYLRNNQLVAGYLQGPNVNLEEKIDVSFVQGEESNDKIPVALGIHGGKMCLSCVKSGDETRLQLEAVDPKNYPKKKMEKRFVFNKIEINNKLSFESAACPGWFLCTAMEADQPVSLTNMPDEGVMVTKFYMQFVSS
notes: Expressed in E. coli; also called chimeric cytokine domain P02
Turning to B6, in assay [2], the “IC50 (read off the curve); HEK-Blue IL-1β SEAP reporter, IL-1β 0.1 ng/ml, lysate with untagged P02, concentration estimated” value is roughly 1 ng/mL. For the same molecule, in assay [3], the Kd was 0.636 nM, the koff was 2.16e-05 s⁻¹ and the kon stood at 33900 M⁻¹ s⁻¹.

B7: P06 (designed binder)
chain: APVRSLNCTLWDVNQKTFYLRNNQLVAGYLQGPNVEQQVVFSMSFVQGEESNDKIPVALGLKEKNLYLSCVLKDDKPTLQLESVDPKNYPKKKMEKRFVFNKIEINNKLEFESAQFPNWYISTSMEADQPVFLGGTKGGQDITDFTMQFVSS
notes: Expressed in E. coli
Consider B7, for which, in assay [3], the Kd is 0.41 nM, the koff is 0.0017 s⁻¹ and the kon is 4.8e+06 M⁻¹ s⁻¹. For the same molecule, the “OD650 (SEAP reporter of HEK-Blue IL-1β cells, agonism test, protein alone; amount of protein not given)” value in assay [4] is 1.78 OD650.
